The target of test [1] is T1, SARS-CoV-2(従来株(武漢株))のSタンパク質のRBDタンパク質 (SARS-CoV-2(従来株(武漢株)), UniProt P0DTC2 322-536).
T1 construct: range 322-536
Nature of the test: X-ray crystal structure of the RBD-Fab complex.

Test [2] deals with T1, SARS-CoV-2(従来株(武漢株))のSタンパク質のRBDタンパク質. Nature of the test: ELISA, RBD coated at 2 μg/ml, Expi293 culture supernatant, HRP anti-human IgG. In general terms: In an ELISA, binding on a coated surface is turned into a signal by an enzyme label.

The values that follow come from patent JP2023014062A (dated 2023).

B1: 抗体NCV2SG53(Fab) (Fab, V domains shown)
VH: QVQMVESGGGLVRPGGSLRLSCAASGFTFSDYYMSWIRQAPGKGLEWISYISSSGSSMNYADSVKGRFTISRDNAKNSLFLQMNSLRAEDTAVYYCAREFDLTKIIMVPPYWGQGTLVTVSS
VL: AIQLTQSPSSLSASVGDRVTITCRASQGISSYLAWYQQKPGKAPKVLIYAASTLQSGVPSRFSGSGSGTDFTLTISSLQPEDFATYYCQQLKSYPLTFGGGTKVEIT
notes: also called Fab(抗体NCV2SG53)
With B1, the binding result in test [1] is “binds”.

B2: 抗体NCV2SG53 (antibody, V domains shown)
VH: QVQMVESGGGLVRPGGSLRLSCAASGFTFSDYYMSWIRQAPGKGLEWISYISSSGSSMNYADSVKGRFTISRDNAKNSLFLQMNSLRAEDTAVYYCAREFDLTKIIMVPPYWGQGTLVTVSS
VL: AIQLTQSPSSLSASVGDRVTITCRASQGISSYLAWYQQKPGKAPKVLIYAASTLQSGVPSRFSGSGSGTDFTLTISSLQPEDFATYYCQQLKSYPLTFGGGTKVEIT
On to B2, for which the binding result in test [2] is given as “binds”.

B3: 抗体NCV2SG48(Fab) (Fab, V domains shown)
VH: EVQLVESGGGLIQPGGSLRLSCAASGFIVSRNYMNWVRQAPGKGLEWVALIYSGGSTFYADSVKGRFTISRDNSKNTLYLQMNSLRAEDTAVYYCARDLVVYGLDYWGQGTLVTVSS
VL: AIQLTQSPSSLSASVGDRVTITCRASQGISSHLAWYQQKPGKAPKLLIFAASTLQSGVPSRFSGSGSGTDFTLTISSLQPEDFATYYCQHLNSNPPITFGQGTRLEIK
notes: also called Fab(抗体NCV2SG48)
Turning to B3, the binding result in test [1] was “binds”.
